We go through 14 sequences from the supplement of paper PMC9170038.

This data set has as its system MS2 coat protein. The data set is described as follows: apparent KD of MS2 coat protein; designed switch direction (-1 OFF switch, 1 ON switch): 1; higher = weaker reporter binding. A digest of the protocol:
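The reported apparent KD is a per-design median over clusters, from curve fits of normalised cluster fluorescence. Protein titrations used SNAP-549-labelled MS2 coat protein, doubled from 0.7 or 1.5 nM to 3 µM, in Tris-HCl pH 7.5 buffer with KCl, MgCl2, BSA, DTT, tRNA and Tween-20, with no input, 200 uM small-molecule ligand, or an oligonucleotide input. The RNA switches were transcribed on Illumina chips by stalled E. coli RNA polymerase.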

Where [1] appears, read: input ligand: microRNA oligo, concentration not stated.

“GCUCGACGUAUUGUCUACAUGAGGAUCACCCAUGUAGGUGCGGAGGAUAUUUACGUGUCUCAUGUAGAGAAGGUCGUGUCGAGC [SameState NG3 #95] (Eterna round: R96, puzzle: Same State NG 3)”: the “apparent KD of MS2 coat protein” value was 912 nM (input ligand: FMN 200 uM), 47.4 nM under setting [1] and 46.8 nM (input ligand: none).

As to “GCUCGAUGAGCGAUUUACAUGAGGAUCACCCAUGUACGUGGGCAGGAUAUUUACGUGCUUUGUGUAGAGAAGGGCCCAUCGAGC [SameState NG3 #72] (Eterna round: R96, puzzle: Same State NG 3)”, the “apparent KD of MS2 coat protein” value stood at 107 nM (input ligand: FMN 200 uM), 309 nM under setting [1] and 546 nM (input ligand: none).

With “GCUCGAUGAGCGUUUUACAUGAGGAUCACCCAUGUUCGUGGGCAGGAUAUUUACGUGCGGAGUGUAGAGAAGGGCCCAUCGAGC [SameState NG3 #68] (Eterna round: R96, puzzle: Same State NG 3)”, the “apparent KD of MS2 coat protein” value runs as follows: (input ligand: FMN 200 uM) 71.3 nM; under setting [1], 391 nM; (input ligand: none) 674 nM.

In the case of “GCUCGAUGAGCUGUCUACAUGAGGAUCACCCAUGUAGAUGGGCAGGAUAUUUACGUGCUUUAUGUAGAGAAGGGCCCAUCGAGC [SameState NG3 #78] (Eterna round: R96, puzzle: Same State NG 3)”, the “apparent KD of MS2 coat protein” value (input ligand: FMN 200 uM) came out at 15.5 nM, the “apparent KD of MS2 coat protein” value under setting [1] came out at 123 nM and the “apparent KD of MS2 coat protein” value (input ligand: none) came to 169 nM.

For the sequence “GCUCGAUGAUAGGCCUACAUGAGGAUCACCCAUGUAAGUGGGCAGGAUAUCUACAUGCAGAAUGUAGAGAAGGGCCCGUCGAGC [SameState NG3 #55] (Eterna round: R96, puzzle: Same State NG 3)”, the “apparent KD of MS2 coat protein” value reads like this: (input ligand: FMN 200 uM) 20.5 nM; under setting [1], 66 nM; (input ligand: none) 83.9 nM.

“GCUCGGAUGAUGACCCACAUGAGGAUCACCCAUGUGCGUGGGCAGGAUAUCUAGAUUAAGGAUGUAGAGAAGGGUCUACCGAGC [SameState NG3 #31] (Eterna round: R96, puzzle: Same State NG 3)”: the “apparent KD of MS2 coat protein” value is, setting by setting: (input ligand: FMN 200 uM) 964 nM; under setting [1], 318 nM; (input ligand: none) 407 nM.

Turning to “GCUCGGAUGAUGGCCCACAUGAGGAUCACCCAUGUGCGUGGGCAGGAUAUCUAGAUUAAGGAUGUAGAGAAGGGUCUACCGAGC [SameState NG3 #32] (Eterna round: R96, puzzle: Same State NG 3)”, the “apparent KD of MS2 coat protein” value is 194 nM (input ligand: FMN 200 uM), 67.9 nM under setting [1] and 128 nM (input ligand: none).

For the sequence “GCUGGAAACCACAUGAGGAUCACCCAUGUUCCGGAAACGGCGCAGGAUAUCUGUCCGAAAAGGUCAGAGAAGGGUGGAACCAGC [Fiskers NG3ss - 81] (Eterna round: R96, puzzle: Same State NG 3)”, the “apparent KD of MS2 coat protein” value by setting is: (input ligand: FMN 200 uM) 232 nM; under setting [1], 136 nM; (input ligand: none) 164 nM.

For “GCUUCACAUGAGGAUCACCCAUGUUUUCGGAGUCGAGGAUAUGGUCACUGUAAACAGUGGCCAGAAGGCGAGGAGC [SS1 - Son of Teenbexe v8] (puzzle: Same State 1)”, where the note is “Eterna round: R95, input ligand: microRNA oligo, concentration not stated”, the “apparent KD of MS2 coat protein” value was 17 nM.

On to “GGAAACUUGAGAGGAUAUGUAGAGGAUCACCCUACAGAAGGCUCUUUUGAGAGGAUAUGUAGAGGAUCACCCUACAGAAGGCUC [pwkr ssNG DX.14] (Eterna round: R96, puzzle: Same State NG 1)”, for which the “apparent KD of MS2 coat protein” value runs as follows: (input ligand: FMN 200 uM) 30.7 nM; under setting [1], 26.5 nM; (input ligand: none) 87 nM.

Consider “GGAAUAUGAUGUUACAUGAGGAUCACCCAUGUAGUAAUAACUAAGGAUAUUUGAAAGGGAGGAGAAGAGAAGGUAGGAUCAUAA [AK SSNG3-V2-11] (Eterna round: R96, puzzle: Same State NG 3)”, for which the “apparent KD of MS2 coat protein” value (input ligand: FMN 200 uM) was found to be 61 nM, the “apparent KD of MS2 coat protein” value under setting [1] came to 41.3 nM and the “apparent KD of MS2 coat protein” value (input ligand: none) came to 63.8 nM.

As to “GGAAUAUGAUGUUACAUGAGGAUCACCCAUGUAGUGACAACUAAGGAUAUCUGAAAGGAAGGAGAGGAGAAGGUAGGAUCAUAA [AK SSNG3-V2-14] (Eterna round: R96, puzzle: Same State NG 3)”, the “apparent KD of MS2 coat protein” value runs as follows: (input ligand: FMN 200 uM) 20 nM; under setting [1], 24.6 nM; (input ligand: none) 33.3 nM.

For the sequence “GGAAUAUUUACAGGAUAUGAGUUGUAAAGUCGAUCAGAAGGGUAGGUGUUUUGCACGGUGUGUUACAUGAGGAUCACCCAUGUU [SameState NG1 #22] (Eterna round: R96, puzzle: Same State NG 1)”, the “apparent KD of MS2 coat protein” value by setting is: (input ligand: FMN 200 uM) 74.1 nM; under setting [1], 66.2 nM; (input ligand: none) 123 nM.

In the case of “GGACGUCAUCUCAAUGAUUAAACAUGAGGAUCACCCAUGUCACAGGAUAUGGAUCCUAAUUGGAUCCAGAAGGGUGUGACGUCC [Fiskers NG3ss - 44] (Eterna round: R96, puzzle: Same State NG 3)”, the “apparent KD of MS2 coat protein” value is, setting by setting: (input ligand: FMN 200 uM) 121 nM; under setting [1], 98.2 nM; (input ligand: none) 148 nM.
